B1: Ribonuclease inhibitor (Homo sapiens), P13489 (parent)
chain: MSLDIQSLDIQCEELSDARWAELLPLLQQCQVVRLDDCGLTEARCKDISSALRVNPALAELNLRSNELGDVGVHCVLQGLQTPSCKIQKLSLQNCCLTGAGCGVLSSTLRTLPTLQELHLSDNLLGDAGLQLLCEGLLDPQCRLEKLQLEYCSLSAASCEPLASVLRAKPDFKELTVSNNDINEAGVRVLCQGLKDSPCQLEALKLESCGVTSDNCRDLCGIVASKASLRELALGSNKLGDVGMAELCPGLLHPSSRLRTLWIWECGITAKGCGDLCRVLRAKESLKELSLAGNELGDEGARLLCETLLEPGCQLESLWVKSCSFTAACCSHFSSVLAQNRFLLELQISNNRLEDAGVRELCQGLGQPGSVLRVLWLADCDVSDSSCSSLAATLLANHSLRELDLSNNCLGDAGILQLVESVRQPGCLLEQLVLYDIYWSEEMEDRLQALEKDKPSLRVIS

Variants of: B1
Conditions: with rnas1_bovin RNASE1, P61823
Chain of rnas1_bovin RNASE1, P61823 (P61823 whole entry): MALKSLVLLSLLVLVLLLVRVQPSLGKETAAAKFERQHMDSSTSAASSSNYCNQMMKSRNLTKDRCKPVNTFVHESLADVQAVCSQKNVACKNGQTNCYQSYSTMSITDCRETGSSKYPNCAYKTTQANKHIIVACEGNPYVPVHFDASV
For Y435F, the “effect of a mutation on the interaction” value was “decreasing interaction”.

Variants of: B1
Conditions: with rnas1_bovin RNASE1, P61823
Remark: another data set of the same source
For Y438F, the “effect of a mutation on the interaction” value was “decreasing interaction”.
